Assay results: US20240317847A1 (Bayer, published 2024)
Residue numbers refer to the chain shown, from its start. Each block holds one binder with its values, some of them ahead of it.

How the values were obtained:
murine IL-11 [1] = biological target: T1, murine IL-11 (mouse, UniProt P47873 22-199); experiment: SPR 37 C, antibody captured, IL-11 as analyte
T1 construct: Invigate, e.g. lot #C210819-09; biotinylated where coated in the ELISA; also called mIL-11; mIL11
T1 sequence: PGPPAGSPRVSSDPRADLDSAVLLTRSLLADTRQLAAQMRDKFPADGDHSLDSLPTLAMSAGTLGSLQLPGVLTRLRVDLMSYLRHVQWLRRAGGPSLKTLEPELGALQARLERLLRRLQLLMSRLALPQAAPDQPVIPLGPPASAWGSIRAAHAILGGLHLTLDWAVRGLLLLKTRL

rat IL-11 [2] = biological target: T2, rat IL-11 (rat, UniProt Q99MF5 22-199); experiment: SPR 37 C, antibody captured, IL-11 as analyte
T2 construct: Invigate, e.g. lot #C301019-19; also called rIL11
T2 sequence: T1 sequence with S50N, L84F, G94A, V137A, I138V

human IL-11 [3] = biological target: T3, human IL-11 (human, UniProt P20809 22-199); experiment: cell-based or functional assay
T3 sequence: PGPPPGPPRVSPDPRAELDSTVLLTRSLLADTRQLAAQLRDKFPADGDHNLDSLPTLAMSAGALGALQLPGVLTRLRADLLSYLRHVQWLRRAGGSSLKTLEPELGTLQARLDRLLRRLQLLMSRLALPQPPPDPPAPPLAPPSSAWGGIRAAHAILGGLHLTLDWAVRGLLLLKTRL

cynomolgus IL-11 = biological target: T4, cynomolgus IL-11 (cynomolgus, UniProt P20808 22-199); experiment: cell-based or functional assay
T4 sequence: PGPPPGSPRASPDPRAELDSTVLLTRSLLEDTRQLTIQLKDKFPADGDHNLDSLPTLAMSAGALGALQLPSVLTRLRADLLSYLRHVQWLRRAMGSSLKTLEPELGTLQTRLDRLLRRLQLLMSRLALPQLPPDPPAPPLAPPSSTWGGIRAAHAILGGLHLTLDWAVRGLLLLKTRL

murine IL-11 [4] = biological target: T1, murine IL-11; experiment: cell-based or functional assay
rat IL-11 [5] = biological target: T2, rat IL-11; experiment: cell-based or functional assay
human IL-11 [6] = biological target: T5, human IL-11 (human, UniProt P20809 22-199); experiment: Tri-complex ELISA, hIL-11 + mIL-11Ra-Fc + hgp130-Fc, inhibition of complex formation; Tri-complex ELISA (IL-11/IL-11Ra/gp130 formation)
T5 construct: Invigate recombinant protein; biotinylated when immobilized in the Di-complex ELISA; also called hIL11; hIL-11
T5 sequence: T3 sequence
Protocol: In the Tri-complex ELISA format IL-11 antibodies are tested for their ability to inhibit the formation of a complex consisting of murine or human gp130-Fc fusion protein, with murine or human IL-11, and a murine IL11RA-Fc fusion protein. The assay format was adapted according to FIG. 18 (a, b), depending on whether murine or human IL-11 IgG antibodies were tested.
The assay was performed using High Binding microtiter plates (Greiner, #781077). In a first step, 25 μl of goat anti human IgG (Sigma, #12136), diluted 1:1000 in coating buffer (Candor, #121125) was coated on the plate at 4° C. overnight. Next day, the plate was washed one time with 50 μl PBST and then blocked with 50 μl SmartBlock (Candor, #113125) for one hour at room temperature (RT). […] After three additional washes of the coated and blocked microtiter plate with PBS-T, 25 μl of each mixture were added and the assay plate was incubated for one hour at room temperature. After three additional washes, anti-mouse-gp130 biotinylated antibody (R&D, #BAF468) or anti-human gp130 biotinylated antibody (R&D, #BAF228), both 1:1000 in 10% SmartBlock PBS-T, was added and incubated for 1 hour at RT. After three additional washes, a Streptavidin-Peroxidase conjugate (Sigma, #S5512) 1:1000 in SmartBlock PBS-T was added and incubated for one hour at room temperature. […] Then, the fluorescence was measured with a plate reader at 535/595 nm. […]

human IL-11 [7] = biological target: T5, human IL-11; experiment: Di-complex ELISA, murine IL11RA-Fc binding to immobilized hIL-11, competition

Kd (murine IL-11 [1]): 0.41 nM
Kd (rat IL-11 [2]): 0.58 nM
RGA Efficacy (%) (human IL-11 [3]): 46.1%
RGA IC50 (human IL-11 [3]): 6.5 nM
RGA Efficacy (%) (cynomolgus IL-11): 70%
RGA IC50 (cynomolgus IL-11): 4.1 nM
RGA Efficacy (%) (murine IL-11 [4]): 93.6%
RGA IC50 (murine IL-11 [4]): 1.2 nM
RGA Efficacy (%) (rat IL-11 [5]): 94%
RGA IC50 (rat IL-11 [5]): 1.8 nM
B1: TPP-18068 (antibody, mouse IgG1)
heavy: EVQLLESGGGLVQPGGSLRLSCAASGFTFSSYGMHWVRQAPGKGLEWVSVISYDGSYKYYADSVKGRFTISRDNSKNTLYLQMNSLRAEDTAVYYCAAGVPDYWGQGTLVTVSSAKTTPPSVYPLAPGSAAQTNSMVTLGCLVKGYFPEPVTVTWNSGSLSSGVHTFPAVLQSDLYTLSSSVTVPSSTWPSETVTCNVAHPASSTKVDKKIVPRDCGCKPCICTVPEVSSVFIFPPKPKDVLTITLTPKVTCVVVDISKDDPEVQFSWFVDDVEVHTAQTQPREEQFNSTFRSVSELPIMHQDWLNGKEFKCRVNSAAFPAPIEKTISKTKGRPKAPQVYTIPPPKEQMAKDKVSLTCMITDFFPEDITVEWQWNGQPAENYKNTQPIMDTDGSYFVYSKLNVQKSNWEAGNTFTCSVLHEGLHNHHTEKSLSHSPGK
light: QSVLTQPPSASGTPGQRVTISCTGSSSNIGAGYDVHWYQQLPGTAPKLLIYSNNERPSGVPDRFSGSKSGTSASLAISGLRSEDEADYYCAAWDDSLNGPVFGGGTKLTVLGQPKSSPSVTLFPPSSEELETNKATLVCTITDFYPGVVTVDWKVDGTPVTQGMETTQPSKQSNNKYMASSYLTLTARAWERHSSYSCQVTHEGHTVEKSLSRADCS
notes: mIgG1, Lambda

IC50 (human IL-11 [6]): 1700 nM
B2: TPP-18068 (antibody, mouse IgG1)
heavy: B1 heavy
light: B1 light
notes: mIgG1, Lambda

IC50 (human IL-11 [7]): 1.6 nM
B3: TPP-29697 (bispecific antibody, IgG1)
chain 1: QVQLVESGGGVVQPGRSLRLSCAASGFTFSHYDMHWVRQAPGKGLEWVAVISYHGSVKFYADSVKGRFTISRDNSKNTLYLQMNSLRAEDTAVYYCARTPGFHFDYWGQGTLVTVSSGGGGSGGGGSGGGGSQSVLTQPPSASGTPGQRVTISCSGSSSNIGSNYVSWYQQLPGTAPKLLIYYDDLRPSGVPDRFSGSKSGTSASLAISGLRSEDEADYYCSAWDDSLSGVVFGGGTKLTVLGGGGSGGGGSGGGGSGVECPPCPAPPVAGPSVFLFPPKPKDTLMISRTPEVTCVVVGVSHEDPEVKFNWYVDGVEVHNAKTKPREEQYNSTYRVVSVLTVLHQDWLNGKEYKCKVSNKQLPSPIEKTISKAKGQPREPQVYTLPPCRDELTKNQVSLWCLVKGFYPSDIAVEWESNGQPENNYKTTPPVLDSDGSFFLYSKLTVDKSRWQQGNVFSCSVMHEALHNHYTQKSLSLSPGK
chain 2: EVQLLESGGGLVQPGGSLRLSCAASGFTFSSYGMHWVRQAPGKGLEWVAVISYDGSYKYYADSVKGRFTISRDNSKNTLYLQMNSLRAEDTAVYYCAAGVPDYWGQGTLVTVSSGGGGSGGGGSGGGGSQSVLTQPPSASGTPGQRVTISCSGSSSNIGSDYDVHWYQQLPGTAPKLLIYSNEERPSGVPDRFSGSKSGTSASLAISGLRSEDEADYYCSAWDSSLSGPVFGGGTKLTVLGGGGSGGGGSGGGGSGVECPPCPAPPVAGPSVFLFPPKPKDTLMISRTPEVTCVVVGVSHEDPEVKFNWYVDGVEVHNAKTKPREEQYNSTYRVVSVLTVLHQDWLNGKEYKCKVSNKQLPSPIEKTISKAKGQPREPQVCTLPPSRDELTKNQVSLSCAVKGFYPSDIAVEWESNGQPENNYKTTPPVLDSDGSFFLVSKLTVDKSRWQQGNVFSCSVMHEALHNHYTQKSLSLSPGK
notes: scFv-kih-hIgG1 with Fc-silencing mutations; bispecific comprising CDRs of TPP-29528 and TPP-29519
